Data set [1] has as its target Staphylococcus aureus PemK toxin, wild type (Staphylococcus aureus CH-91 (plasmid pCH91)). The experiment in a line: SEC-MALS. A general note: Size exclusion chromatography separates by hydrodynamic size, large species first.
A further data set concerns the target T1, PemK WT (Staphylococcus aureus CH-91 (plasmid …, UniProt L7PFJ6 1-112)).
T1 sequence: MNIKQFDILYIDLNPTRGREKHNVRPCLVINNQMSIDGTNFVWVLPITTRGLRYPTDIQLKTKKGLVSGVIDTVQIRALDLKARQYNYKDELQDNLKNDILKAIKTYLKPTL
The experiment in a line: NMR titration.

The record followed here is publication PMC8887465.

By stoichiometry N is commonly meant a count of units in the complex or per binding partner. In turn, “Staphylococcus aureus PemK toxin, wild type (enzyme)” displayed a stoichiometry N in data set [1] of 2.

On to UUUAUUAA (ssRNA, deoxyuridine at position 3 (dU3), rest RNA) [ssRNA UUdUAUUAA], for which, in the data set with PemK WT, the binding result is “binds”.
